The results in this text go back to publication PMC8523169, “Competitive binding of MatP and topoisomerase IV to the MukB hinge domain” (eLife, 2021).

Series [1] concerns the molecule itself. Put plainly: native MS; proteins buffer exchanged into 200 mM ammonium acetate pH 8.0, alone or mixed in different ratios (two or three components, with or without 50 bp DNA), 10 min on ice.
Series [2] has as its target T1, MatPΔ18C (1–132), C-terminal 6xHis-tag (E. coli, UniProt P0A8N0 1-132).
T1 construct: MatP, E. coli, residues 1-132 (deletion of the 18 C-terminal residues); also called MatPΔ18C-His; MatP2; source: overexpressed, purified as previously published (Nolivos et al., 2016) with an added SEC step; not shown: His6, C-terminal, kept
T1 sequence (looked up): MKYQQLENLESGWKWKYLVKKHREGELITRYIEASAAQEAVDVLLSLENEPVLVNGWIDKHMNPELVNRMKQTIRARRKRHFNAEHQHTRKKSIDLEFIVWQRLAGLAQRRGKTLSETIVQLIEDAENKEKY
Described as above. The conditions noted are these: both partners purified.

The target of series [3] is T2, full-length ParC, N-terminal 6xHis-tag (E. coli, UniProt P0AFI2 1-752).
T2 construct: ParC subunit of topoisomerase IV, E. coli, full length; also called His-ParC; ParC2; source: overexpressed, purified as previously published (Nolivos et al., 2016) with an added SEC step; not shown: His6, N-terminal, kept
T2 sequence (looked up): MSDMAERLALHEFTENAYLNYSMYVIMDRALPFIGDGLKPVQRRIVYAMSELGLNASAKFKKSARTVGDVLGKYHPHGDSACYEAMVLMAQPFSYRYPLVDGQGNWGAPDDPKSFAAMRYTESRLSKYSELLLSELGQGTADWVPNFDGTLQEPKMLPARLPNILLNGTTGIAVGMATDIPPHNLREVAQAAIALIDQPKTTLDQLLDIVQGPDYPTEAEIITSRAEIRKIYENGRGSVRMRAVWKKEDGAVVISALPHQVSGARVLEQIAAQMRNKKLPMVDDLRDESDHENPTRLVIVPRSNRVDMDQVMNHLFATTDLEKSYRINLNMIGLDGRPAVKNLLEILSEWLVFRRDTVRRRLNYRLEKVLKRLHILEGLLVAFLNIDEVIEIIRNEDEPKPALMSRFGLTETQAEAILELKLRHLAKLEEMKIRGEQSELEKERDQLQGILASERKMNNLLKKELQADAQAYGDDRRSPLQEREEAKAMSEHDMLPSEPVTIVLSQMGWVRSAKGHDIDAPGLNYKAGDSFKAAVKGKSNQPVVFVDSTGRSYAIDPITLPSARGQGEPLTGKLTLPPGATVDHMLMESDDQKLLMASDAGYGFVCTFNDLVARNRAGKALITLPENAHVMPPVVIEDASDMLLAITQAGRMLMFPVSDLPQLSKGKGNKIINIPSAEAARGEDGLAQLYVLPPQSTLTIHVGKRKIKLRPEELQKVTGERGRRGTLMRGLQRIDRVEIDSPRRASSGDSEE
Put plainly: SEC; topoIV reconstitution: equimolar ParC and ParE, 30 min on ice, verified in analytical SEC. The conditions noted are these: both partners purified. (In general: In gel filtration, larger molecules generally elute earlier.)

B1: MatP^4E (K71E, Q72E, R75E, and R77E) (domain or fragment, E. coli, UniProt P0A8N0 1-132, looked up)
chain: MKYQQLENLESGWKWKYLVKKHREGELITRYIEASAAQEAVDVLLSLENEPVLVNGWIDKHMNPELVNRMEETIEAERKRHFNAEHQHTRKKSIDLEFIVWQRLAGLAQRRGKTLSETIVQLIEDAENKEKY
notes: MatP, E. coli, residues 1-132 (MatPΔ18C) with four substitutions; also called MatP K71E, Q72E, R75E, R77E; source: site-directed mutagenesis, purified using the same protocol as MatP
For the molecule B1, in series [1], the stoichiometry N (usually a count of units in the complex or per binding partner) worked out at 2.

B2: MukB short hinge (SH; amino acid residues 667–779) (domain or fragment, E. coli, UniProt P22523 667-779, looked up)
chain: GGSEDQRLNALAERFGGVLLSEIYDDVSLEDAPYFSALYGPSRHAIVVPDLSQVTEHLEGLTDCPEDLYLIEGDPQSFDDSVFSVDELEKAVVVKIADRQWRYSRFPEVPLFG
notes: MukB, E. coli, residues 667-779: hinge lacking the entire coiled-coil; Monomer/dimer mix at tens of µM by nMS; also called SH-His; SH MukB; source: overexpressed, purified (TALON, HiTrap Q XL, SEC); not shown: His6, C-terminal, kept
For B2, in series [2], the binding result is given as “binds”. Also, in series [1], the “stoichiometry N” value stood at 2.

B3: ParE-His (enzyme, E. coli, UniProt P20083 1-630, looked up)
chain: MTQTYNADAIEVLTGLEPVRRRPGMYTDTTRPNHLGQEVIDNSVDEALAGHAKRVDVILHADQSLEVIDDGRGMPVDIHPEEGVPAVELILCRLHAGGKFSNKNYQFSGGLHGVGISVVNALSKRVEVNVRRDGQVYNIAFENGEKVQDLQVVGTCGKRNTGTSVHFWPDETFFDSPRFSVSRLTHVLKAKAVLCPGVEITFKDEINNTEQRWCYQDGLNDYLAEAVNGLPTLPEKPFIGNFAGDTEAVDWALLWLPEGGELLTESYVNLIPTMQGGTHVNGLRQGLLDAMREFCEYRNILPRGVKLSAEDIWDRCAYVLSVKMQDPQFAGQTKERLSSRQCAAFVSGVVKDAFILWLNQNVQAAELLAEMAISSAQRRMRAAKKVVRKKLTSGPALPGKLADCTAQDLNRTELFLVEGDSAGGSAKQARDREYQAIMPLKGKILNTWEVSSDEVLASQEVHDISVAIGIDPDSDDLSQLRYGKICILADADSDGLHIATLLCALFVKHFRALVKHGHVYVALPPLYRIDLGKEVYYALTEEEKEGVLEQLKRKKGKPNVQRFKGLGEMNPMQLRETTLDPNTRRLVQLTIDDEDDQRTDAMMDMLLAKKRSEDRRNWLQEKGDMAEIEV
notes: ParE subunit of topoisomerase IV, E. coli; source: overexpressed, purified (TALON, HiTrap Q XL, SEC)
Regarding B3, the “stoichiometry N” value in series [1] was determined as 2. The binding result in series [3] is listed as “binds”.

B4: His-ParC R705E R729A (enzyme, E. coli, UniProt P0AFI2 1-752, looked up)
chain: MSDMAERLALHEFTENAYLNYSMYVIMDRALPFIGDGLKPVQRRIVYAMSELGLNASAKFKKSARTVGDVLGKYHPHGDSACYEAMVLMAQPFSYRYPLVDGQGNWGAPDDPKSFAAMRYTESRLSKYSELLLSELGQGTADWVPNFDGTLQEPKMLPARLPNILLNGTTGIAVGMATDIPPHNLREVAQAAIALIDQPKTTLDQLLDIVQGPDYPTEAEIITSRAEIRKIYENGRGSVRMRAVWKKEDGAVVISALPHQVSGARVLEQIAAQMRNKKLPMVDDLRDESDHENPTRLVIVPRSNRVDMDQVMNHLFATTDLEKSYRINLNMIGLDGRPAVKNLLEILSEWLVFRRDTVRRRLNYRLEKVLKRLHILEGLLVAFLNIDEVIEIIRNEDEPKPALMSRFGLTETQAEAILELKLRHLAKLEEMKIRGEQSELEKERDQLQGILASERKMNNLLKKELQADAQAYGDDRRSPLQEREEAKAMSEHDMLPSEPVTIVLSQMGWVRSAKGHDIDAPGLNYKAGDSFKAAVKGKSNQPVVFVDSTGRSYAIDPITLPSARGQGEPLTGKLTLPPGATVDHMLMESDDQKLLMASDAGYGFVCTFNDLVARNRAGKALITLPENAHVMPPVVIEDASDMLLAITQAGRMLMFPVSDLPQLSKGKGNKIINIPSAEAARGEDGLAQLYVLPPQSTLTIHVGKEKIKLRPEELQKVTGERGRRGTLMAGLQRIDRVEIDSPRRASSGDSEE
notes: ParC, E. coli, full length, with two substitutions; also called ParC^EA; source: site-directed mutagenesis, purified using the same protocol as ParC; not shown: His6, N-terminal, kept
B4: the “stoichiometry N” value in series [1] worked out at 2.
